Assay results as given in article PMC4300236.

Biological target: rabbit skeletal muscle type 1 ryanodine receptor (RyR1) (rabbit (Oryctolagus cuniculus)) (UniProt P11716)
Assay: cryo-EM structure

Sequence of rabbit skeletal muscle type 1 ryanodine receptor (RyR1), P11716 1-5037 (P11716 whole entry): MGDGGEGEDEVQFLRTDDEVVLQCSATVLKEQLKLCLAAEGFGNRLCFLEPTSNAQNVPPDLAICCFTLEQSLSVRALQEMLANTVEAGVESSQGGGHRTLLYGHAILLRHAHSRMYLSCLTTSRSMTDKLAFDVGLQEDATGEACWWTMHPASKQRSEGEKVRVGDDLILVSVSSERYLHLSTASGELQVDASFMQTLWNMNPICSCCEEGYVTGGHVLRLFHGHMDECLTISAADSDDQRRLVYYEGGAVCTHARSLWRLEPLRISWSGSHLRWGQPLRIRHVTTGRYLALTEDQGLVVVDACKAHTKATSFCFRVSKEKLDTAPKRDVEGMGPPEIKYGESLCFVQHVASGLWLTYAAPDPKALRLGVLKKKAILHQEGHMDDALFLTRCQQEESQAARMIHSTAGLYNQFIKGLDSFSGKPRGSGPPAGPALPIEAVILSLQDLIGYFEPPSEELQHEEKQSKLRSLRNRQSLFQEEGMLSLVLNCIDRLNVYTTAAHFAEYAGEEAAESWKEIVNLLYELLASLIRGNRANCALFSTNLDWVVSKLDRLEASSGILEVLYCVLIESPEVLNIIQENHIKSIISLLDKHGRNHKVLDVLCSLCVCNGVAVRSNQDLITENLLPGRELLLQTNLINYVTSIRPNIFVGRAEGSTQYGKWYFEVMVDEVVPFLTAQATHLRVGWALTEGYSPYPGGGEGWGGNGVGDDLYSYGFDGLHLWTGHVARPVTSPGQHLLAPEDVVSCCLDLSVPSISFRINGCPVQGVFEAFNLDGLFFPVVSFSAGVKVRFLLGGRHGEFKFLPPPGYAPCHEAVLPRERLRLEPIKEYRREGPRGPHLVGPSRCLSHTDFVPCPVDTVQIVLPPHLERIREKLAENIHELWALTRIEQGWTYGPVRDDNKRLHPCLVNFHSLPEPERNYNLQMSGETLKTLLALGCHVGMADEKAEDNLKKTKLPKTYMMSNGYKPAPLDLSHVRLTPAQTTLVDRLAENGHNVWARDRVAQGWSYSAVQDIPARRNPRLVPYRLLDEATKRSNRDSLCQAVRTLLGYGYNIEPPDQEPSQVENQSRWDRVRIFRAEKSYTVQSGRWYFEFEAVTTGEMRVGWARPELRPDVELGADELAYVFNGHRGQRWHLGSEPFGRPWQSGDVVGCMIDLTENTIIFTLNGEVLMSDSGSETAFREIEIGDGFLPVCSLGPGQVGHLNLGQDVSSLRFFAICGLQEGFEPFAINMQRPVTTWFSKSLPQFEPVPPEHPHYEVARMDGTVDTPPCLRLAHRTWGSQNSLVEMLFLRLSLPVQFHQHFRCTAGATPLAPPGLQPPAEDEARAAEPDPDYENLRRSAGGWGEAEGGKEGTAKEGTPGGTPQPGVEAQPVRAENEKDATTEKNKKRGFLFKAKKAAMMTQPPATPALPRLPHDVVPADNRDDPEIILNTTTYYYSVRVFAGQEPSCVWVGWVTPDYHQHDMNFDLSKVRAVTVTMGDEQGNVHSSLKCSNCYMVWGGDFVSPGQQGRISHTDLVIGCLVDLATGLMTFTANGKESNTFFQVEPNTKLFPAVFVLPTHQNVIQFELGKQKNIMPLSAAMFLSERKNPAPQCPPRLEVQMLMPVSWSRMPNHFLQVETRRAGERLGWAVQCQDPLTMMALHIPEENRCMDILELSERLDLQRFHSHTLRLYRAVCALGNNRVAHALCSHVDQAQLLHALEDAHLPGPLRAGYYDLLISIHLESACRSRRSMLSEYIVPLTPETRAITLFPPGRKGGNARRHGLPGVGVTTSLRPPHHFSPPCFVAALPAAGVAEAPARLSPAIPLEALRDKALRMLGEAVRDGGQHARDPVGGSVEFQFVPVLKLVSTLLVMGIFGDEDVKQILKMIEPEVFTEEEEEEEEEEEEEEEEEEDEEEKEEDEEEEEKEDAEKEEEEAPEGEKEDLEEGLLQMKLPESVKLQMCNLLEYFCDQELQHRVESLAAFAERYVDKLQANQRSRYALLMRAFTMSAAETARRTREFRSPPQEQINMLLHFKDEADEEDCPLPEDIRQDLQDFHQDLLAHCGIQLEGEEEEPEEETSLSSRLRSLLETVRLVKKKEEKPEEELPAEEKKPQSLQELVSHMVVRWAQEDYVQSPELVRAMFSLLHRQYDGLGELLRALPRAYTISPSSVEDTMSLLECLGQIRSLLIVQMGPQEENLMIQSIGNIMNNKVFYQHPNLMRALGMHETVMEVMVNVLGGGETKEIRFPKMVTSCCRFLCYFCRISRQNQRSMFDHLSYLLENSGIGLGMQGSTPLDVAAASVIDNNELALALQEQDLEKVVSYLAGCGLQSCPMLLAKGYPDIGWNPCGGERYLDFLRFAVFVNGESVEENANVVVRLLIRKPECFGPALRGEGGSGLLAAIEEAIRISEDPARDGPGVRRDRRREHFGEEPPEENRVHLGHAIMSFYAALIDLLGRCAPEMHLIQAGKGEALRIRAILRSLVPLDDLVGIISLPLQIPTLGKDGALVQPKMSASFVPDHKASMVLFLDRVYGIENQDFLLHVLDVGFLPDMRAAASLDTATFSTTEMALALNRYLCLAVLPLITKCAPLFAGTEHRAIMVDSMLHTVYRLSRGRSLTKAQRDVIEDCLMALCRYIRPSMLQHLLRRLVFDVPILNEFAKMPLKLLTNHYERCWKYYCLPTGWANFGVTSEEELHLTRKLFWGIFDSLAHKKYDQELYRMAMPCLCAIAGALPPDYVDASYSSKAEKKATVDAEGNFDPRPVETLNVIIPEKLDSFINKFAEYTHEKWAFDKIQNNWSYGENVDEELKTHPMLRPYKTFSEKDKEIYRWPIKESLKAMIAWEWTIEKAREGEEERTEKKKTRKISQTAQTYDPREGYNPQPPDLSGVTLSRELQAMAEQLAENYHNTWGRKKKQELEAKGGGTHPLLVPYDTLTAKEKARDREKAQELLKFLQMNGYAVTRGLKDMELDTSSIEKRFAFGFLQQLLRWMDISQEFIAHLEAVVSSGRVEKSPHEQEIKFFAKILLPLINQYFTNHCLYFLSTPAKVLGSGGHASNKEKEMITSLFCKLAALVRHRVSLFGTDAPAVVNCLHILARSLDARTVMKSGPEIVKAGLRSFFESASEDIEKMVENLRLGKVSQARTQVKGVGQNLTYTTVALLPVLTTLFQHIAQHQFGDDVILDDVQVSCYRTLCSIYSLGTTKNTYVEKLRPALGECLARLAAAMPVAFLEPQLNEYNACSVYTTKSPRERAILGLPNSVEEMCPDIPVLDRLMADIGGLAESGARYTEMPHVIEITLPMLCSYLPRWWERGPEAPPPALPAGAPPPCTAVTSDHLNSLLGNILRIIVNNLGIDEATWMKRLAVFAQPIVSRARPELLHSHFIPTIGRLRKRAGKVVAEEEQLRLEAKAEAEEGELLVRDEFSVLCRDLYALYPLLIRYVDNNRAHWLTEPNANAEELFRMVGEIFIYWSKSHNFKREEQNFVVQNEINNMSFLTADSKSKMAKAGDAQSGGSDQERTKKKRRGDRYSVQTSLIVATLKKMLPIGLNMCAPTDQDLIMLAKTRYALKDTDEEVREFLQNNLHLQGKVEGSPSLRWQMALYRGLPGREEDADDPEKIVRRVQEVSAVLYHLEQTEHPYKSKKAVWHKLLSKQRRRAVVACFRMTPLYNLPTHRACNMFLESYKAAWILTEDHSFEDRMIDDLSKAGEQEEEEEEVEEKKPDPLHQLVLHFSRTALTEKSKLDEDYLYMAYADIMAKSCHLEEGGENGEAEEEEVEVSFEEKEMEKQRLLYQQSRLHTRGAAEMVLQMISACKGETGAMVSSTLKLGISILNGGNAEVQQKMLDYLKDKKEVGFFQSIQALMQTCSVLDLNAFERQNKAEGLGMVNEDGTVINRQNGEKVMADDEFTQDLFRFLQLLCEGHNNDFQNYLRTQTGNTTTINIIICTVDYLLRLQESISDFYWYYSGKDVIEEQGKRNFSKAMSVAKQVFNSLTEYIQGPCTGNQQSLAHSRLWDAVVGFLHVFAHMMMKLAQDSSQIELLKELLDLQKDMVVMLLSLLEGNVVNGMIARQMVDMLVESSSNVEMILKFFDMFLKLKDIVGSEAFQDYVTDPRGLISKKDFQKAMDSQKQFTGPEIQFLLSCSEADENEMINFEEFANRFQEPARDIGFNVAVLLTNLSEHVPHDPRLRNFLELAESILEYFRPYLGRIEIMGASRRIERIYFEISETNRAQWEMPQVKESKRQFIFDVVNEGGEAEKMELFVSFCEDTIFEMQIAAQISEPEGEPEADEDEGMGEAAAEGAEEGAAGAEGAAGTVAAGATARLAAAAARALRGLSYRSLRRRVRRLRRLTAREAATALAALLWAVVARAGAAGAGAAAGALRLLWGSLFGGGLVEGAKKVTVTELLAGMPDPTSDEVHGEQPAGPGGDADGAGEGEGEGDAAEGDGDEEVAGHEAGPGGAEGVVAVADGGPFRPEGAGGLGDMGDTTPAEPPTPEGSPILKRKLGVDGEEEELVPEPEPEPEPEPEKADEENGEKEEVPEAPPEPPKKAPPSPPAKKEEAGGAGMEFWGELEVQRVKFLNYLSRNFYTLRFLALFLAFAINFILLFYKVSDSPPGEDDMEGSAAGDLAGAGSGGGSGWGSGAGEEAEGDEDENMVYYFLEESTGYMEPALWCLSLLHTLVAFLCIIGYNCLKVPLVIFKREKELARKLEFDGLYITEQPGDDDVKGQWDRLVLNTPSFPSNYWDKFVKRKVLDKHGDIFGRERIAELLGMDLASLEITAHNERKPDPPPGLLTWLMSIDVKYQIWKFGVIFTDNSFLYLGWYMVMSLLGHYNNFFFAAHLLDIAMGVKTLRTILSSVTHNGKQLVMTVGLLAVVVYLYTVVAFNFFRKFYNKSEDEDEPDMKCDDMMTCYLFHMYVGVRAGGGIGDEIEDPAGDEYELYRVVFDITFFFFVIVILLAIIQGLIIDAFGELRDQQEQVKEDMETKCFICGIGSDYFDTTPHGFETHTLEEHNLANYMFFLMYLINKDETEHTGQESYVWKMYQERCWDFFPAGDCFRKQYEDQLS

“rabbit skeletal muscle type 1 ryanodine receptor (RyR1), P11716 1-5037” showed a stoichiometry N of 4.
